Test results reported in paper PMC5861037.

Assays:
[1] = biological target: DosR K182Q K182Q (Mycobacterium tuberculosis H37Rv) (UniProt P9WMF9); experiment: EMSA
[2] = biological target: DosR K182R K182R (Mycobacterium tuberculosis H37Rv) (UniProt P9WMF9); experiment: EMSA

## TTGATGCCTCCTAATCGATGGAAACGGATGCCTTTGATCCGACCAGCCCATCGTGGCCAGGGCTAGGGACAGAAGTCCCCGAAGCGCGGGCCATTTGTCCGCGCCCGTCGGTGATCCACTTGGGGACCATTGACCCTGTTGTCTGCCA (double strand) [acr promoter fragment]
[1]
  binding: binds more weakly
[2]
  binding: binds
